T1: 3-pHis peptide (biotin-aminocaproic acid-AGAG-3-pHis-AGAG)
T1 sequence (peptide, biotin-aminocaproic acid on the N-terminus; 3-phosphohistidine at position 5): AGAGHAGAG

B1: rSC44 IgG (rabbit SC44-8 anti-3-pTza/3-pHis mAb) (antibody, V domains shown)
VH: QSVKESGRGLVQPGGSLTLTCTASGFSIDSYGFSWVRQAPGKGLEHIGYLTAGGRAFYASWAKSRSTITRNTNENTVTLKMTSLTAADTATYFCAKLGSGNPVAIWGPGTLVTVSS
VL: QVLTQTPSFTSAAVGGTVTINCQSSQSVWRNKNLAWYQQKPGQPPKRLIYAIATLDSGVPSRFSGSGSGTQFTLTISDVQCDDAATYYCVGHYGSENDAYYAFGGGTEVVVK
B2: hSC44.20.N32F^L IgG (antibody, V domains shown)
VH: EVQLVESGGGLVQPGGSLRLSCTASGFSIDSYGFSWVRQAPGKGLEHIGYLTAGGRAFYASWAKSRSTITRNTNENTVTLKMNSLRAEDTAVYYCAKLGTGSRFAIWGQGTLVTVSS
VL: DIQMTQSPSSLSASVGDRVTITCRASQSVWRNKFVAWYQQKPGKAPKRLIYAIASLYSGVPSRFSGSGSGTDFTLTISSLQPEDFATYYCVGHYGSENDAYYAFGQGTKVEIK
B3: hSC44.20 IgG (antibody, V domains shown)
VH: B2 VH
VL: B2 VL with F34N
B4: hSC44 IgG (humanized version of rSC44) (antibody, V domains shown)
VH: B2 VH with T100S, S102N, R103P, F104V
VL: B2 VL with F34N
B5: hSC44.28 IgG (antibody, V domains shown)
VH: EVQLVESGGGLVQPGGSLRLSCTASGFSIDSYGFSWVRQAPGKGLEHIGYLTAGGRAFYASWAKSRSTITRNTNENTVTLKMNSLRAEDTAVYYCAKLGTGSPLAIWG
VL: B2 VL
B6: hSC44.31 IgG (antibody, V domains shown)
VH: B2 VH with S102T, R103P
VL: B2 VL with F34Y
B7: hSC44.22 IgG (antibody, V domains shown)
VH: B5 VH with S102T, L104V
VL: B2 VL with F34N
B8: hSC44.8 IgG (antibody, V domains shown)
VH: B5 VH with L98I, P103R, L104V
VL: B2 VL with F34N
B9: hSC44.13 IgG (antibody, V domains shown)
VH: B5 VH with L104V
VL: B2 VL with F34N
B10: hSC44.1 IgG (antibody, V domains shown)
VH: B2 VH with R103P, F104I
VL: B2 VL with F34N
B11: hSC44.3 IgG (antibody, V domains shown)
VH: B5 VH with L98I, T100S, L104V
VL: B2 VL with F34N
B12: hSC44.20.N32Y^L IgG (antibody, V domains shown)
VH: B2 VH
VL: B2 VL with F34Y

Changes are numbered by the printed parent chain. In names and notes the source's numbering stands.

Sequence of 3-pHis form of ACLY (120 kDa) (P53396 whole entry): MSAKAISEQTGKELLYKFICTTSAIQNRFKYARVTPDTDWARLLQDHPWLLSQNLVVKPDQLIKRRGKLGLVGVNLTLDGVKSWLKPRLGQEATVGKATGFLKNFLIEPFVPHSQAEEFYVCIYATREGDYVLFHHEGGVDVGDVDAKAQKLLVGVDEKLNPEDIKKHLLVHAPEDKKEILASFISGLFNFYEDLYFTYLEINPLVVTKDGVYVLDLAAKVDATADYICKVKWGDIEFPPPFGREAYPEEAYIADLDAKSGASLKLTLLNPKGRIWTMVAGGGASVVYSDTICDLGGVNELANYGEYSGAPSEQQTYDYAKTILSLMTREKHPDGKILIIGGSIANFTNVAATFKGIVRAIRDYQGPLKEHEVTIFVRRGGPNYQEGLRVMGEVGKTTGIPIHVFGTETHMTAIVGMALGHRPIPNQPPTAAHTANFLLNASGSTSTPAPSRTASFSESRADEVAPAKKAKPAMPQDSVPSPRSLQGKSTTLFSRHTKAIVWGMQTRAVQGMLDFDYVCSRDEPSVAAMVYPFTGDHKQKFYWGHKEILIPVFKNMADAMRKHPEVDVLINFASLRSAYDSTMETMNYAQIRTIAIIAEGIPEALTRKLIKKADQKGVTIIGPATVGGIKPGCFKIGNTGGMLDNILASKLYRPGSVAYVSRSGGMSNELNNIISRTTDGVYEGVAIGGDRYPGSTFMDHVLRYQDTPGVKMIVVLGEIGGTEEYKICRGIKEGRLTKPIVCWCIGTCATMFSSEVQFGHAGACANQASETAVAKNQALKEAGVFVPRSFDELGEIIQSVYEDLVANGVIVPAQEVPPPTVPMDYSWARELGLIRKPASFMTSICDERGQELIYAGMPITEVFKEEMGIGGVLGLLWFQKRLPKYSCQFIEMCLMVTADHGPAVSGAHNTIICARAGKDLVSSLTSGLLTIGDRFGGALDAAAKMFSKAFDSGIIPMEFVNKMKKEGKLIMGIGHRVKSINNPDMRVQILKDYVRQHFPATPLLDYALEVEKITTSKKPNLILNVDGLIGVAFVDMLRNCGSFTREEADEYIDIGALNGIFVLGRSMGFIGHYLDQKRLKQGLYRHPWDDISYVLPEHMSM

One experiment addresses 3-pHis form of ACLY (120 kDa) (Homo sapiens (HEK293T, endogenous), UniProt P53396, 3-phosphohistidine (residue not stated)). Briefly: immunoblot. A general note: Immunoblotting shows a protein as a band on a membrane.
B1: the binding result is listed as “binds”.

For B2, the binding result is “binds”.

In the case of B3, the binding result is listed as “binds”.

A further experiment has as its target 3-pTza peptide (Biotin-AminocaproicAcid-AGAG-3-pTza-AGAG). Briefly: BLI.
On to B4, for which the Kd (commonly the constant that tells how readily two partners part at equilibrium) turned out to be 1.2 nM.

Consider B5, for which the Kd came to 1.21 nM and the kon – broadly, a measure of how fast the partners come together – was 24900 M⁻¹ s⁻¹.

On to B2, for which the Kd came to 1.54 nM, the dissociation rate constant (koff) (commonly the first-order rate constant of dissociation) is 5.73e-05 s⁻¹ and the kon worked out at 37300 M⁻¹ s⁻¹.

B3: the Kd was < 0.001 nM and the kon stood at 257000 M⁻¹ s⁻¹.

The molecule B6 displayed an equilibrium dissociation constant (Kd) of 2.71 nM, a koff of 3.98e-05 s⁻¹ and a kon of 14700 M⁻¹ s⁻¹.

B7 showed a Kd of 0.495 nM, a koff of 4.49e-05 s⁻¹ and a kon of 90600 M⁻¹ s⁻¹.

Turning to B8, the Kd is 0.185 nM, the koff amounted to 6.66e-05 s⁻¹ and the kon is 359000 M⁻¹ s⁻¹.

Molecule B9 had a Kd of 0.405 nM, a koff of 7.37e-05 s⁻¹ and a kon of 182000 M⁻¹ s⁻¹.

Turning to B10, the Kd was determined as 0.588 nM, the koff amounted to 8.32e-05 s⁻¹ and the kon amounted to 141000 M⁻¹ s⁻¹.

B11 displayed a Kd of 0.352 nM, a koff of 1.43e-05 s⁻¹ and a kon of 40700 M⁻¹ s⁻¹.

For B12, the Kd was < 0.001 nM and the kon turned out to be 35100 M⁻¹ s⁻¹.

The target in another experiment is T1, 3-pHis peptide (biotin-aminocaproic acid-AGAG-3-pHis-AGAG). Briefly: BLI.
Take B2: the Kd was 1.68 nM, the koff was determined as 1.64e-05 s⁻¹ and the kon was found to be 13900 M⁻¹ s⁻¹.

Turning to B3, the Kd came out at 21 nM and the kon worked out at 75500 M⁻¹ s⁻¹.

Consider B12, for which the Kd stood at 9.5 nM, the off-rate (koff) worked out at 2.61e-05 s⁻¹ and the kon turned out to be 8880 M⁻¹ s⁻¹.
